Measurements taken from patent publication US20170081411A1 (published 2017).

Assays:
[1] = biological target: T1, His-Avidin-FKBP (wild-type FKBP) (biotinylated (position not given)); experiment: AlphaLISA direct format: 30 nM biotinylated FKBP + 30 nM FLAG-FRB, everolimus titrated 1:3 from 600 nM (EC50 is of the everolimus titration)
T1 construct: His tag and biotin acceptor tag are part of the entry; also called biotinylated wild-type FKBP; biotinylated FKBP
Experimental: (§1) FRB mutations were also ranked in an alternative assay format. […] All dilutions were made in 1× AlphaLISA Immunoassay buffer (PerkinElmer). Anti-Flag acceptor beads (PerkinElmer) were added at 10 ug/ml final concentration and incubated for one hour at room temperature. Streptavidin donor beads (PerkinElmer), were then added at a final concentration of 40 ug/ml and the plate was protected from light and incubated for 30 minutes at room temperature. The plate was then read on the PerkinElmer EnVision Multiplate reader equipped with the Alpha Module using excitation of 680 nm and a 570 nm Emission filter.

[2] = biological target: T1, His-Avidin-FKBP (wild-type FKBP); experiment: AlphaLISA direct format, everolimus titrated, EC50 against wild type FRB
Experimental: as §1

T1 sequence (chain, as listed by the source limits assumed): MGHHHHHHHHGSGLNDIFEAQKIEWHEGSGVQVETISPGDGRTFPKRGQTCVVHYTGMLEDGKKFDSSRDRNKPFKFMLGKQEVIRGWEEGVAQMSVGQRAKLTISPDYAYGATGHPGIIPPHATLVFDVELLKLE

EC50 [1] [nM]	fold improved against wild type FRB [2] [fold]	Binder
3.9		His-FLAG-FRB (wild-type FRB) (other, His and FLAG tags are part of the entry; also called wild type Flag-FRB) MGHHHHHHHHGSDYKDDDDKGSASRILWHEMWHEGLEEASRLYFGERNVKGMFEVLEPLHAMMERGPQTLKETSFNQAYGRDLMEAQEWCRKYMKSGNVKDLTQAWDLYYHVFRRISKTS
2.15		His-FLAG-FRB E2032L (other, The entry already carries the mutation and the tags; also called E2032L (FLAG tagged)) MGHHHHHHHHGSDYKDDDDKGSASRILWHEMWHEGLLEASRLYFGERNVKGMFEVLEPLHAMMERGPQTLKETSFNQAYGRDLMEAQEWCRKYMKSGNVKDLTQAWDLYYHVFRRISKTS
2.46		His-FLAG-FRB E2032I (other, The entry already carries the mutation and the tags; also called E2032I (FLAG tagged)) MGHHHHHHHHGSDYKDDDDKGSASRILWHEMWHEGLIEASRLYFGERNVKGMFEVLEPLHAMMERGPQTLKETSFNQAYGRDLMEAQEWCRKYMKSGNVKDLTQAWDLYYHVFRRISKTS
1.44	3	His-FLAG-FRB T2098L (other, The entry already carries the mutation and the tags; also called T2098L (FLAG tagged)) MGHHHHHHHHGSDYKDDDDKGSASRILWHEMWHEGLEEASRLYFGERNVKGMFEVLEPLHAMMERGPQTLKETSFNQAYGRDLMEAQEWCRKYMKSGNVKDLLQAWDLYYHVFRRISKTS
